The values that follow come from PMC3182250 (PLoS ONE, 2011).

As a reminder, the Kd is the concentration at which binding is half-saturated.

This test deals with T1, Ca2+-calmodulin (of the unpublished KD) ( (rat cDNA cloned), UniProt P0DP29 1-149).
T1 construct: also called Ca2+-CaM
Description: not stated; unpublished ('A.A. in preparation'); affinity of the Kv7 CaM-binding site for Ca2+-CaM.

B1: Kv7.2 CaM-binding site (construct of the unpublished KD not stated) (domain or fragment)
chain: not shown
notes: the construct may be that of m1
Regarding B1, the Kd is ~0.025 µM.

B2: Kv7.3 CaM-binding site (construct of the unpublished KD not stated) (domain or fragment)
chain: not shown
On to B2, for which the Kd was ~0.025 µM.
